The results in this text go back to the RNAGym collection of RNA variant scans (doi:10.1073/pnas.2313332121).

B1: TPR t1 (parent)
chain: GACCAAUCUGCCCUCAGAGCUCGAGAACAUCUUCGGAUGCAGAGGAGGCAGGCUUCGGUGGCGCGAUAGCGCCAACGUCCUCAACCUCCAAUGCAUCCCACCACAUGAUGAUGCCUGAAGAGCCUUGGUUUUUUG

In this data set the parent is B1. Nature of the data set: polymerase ribozyme fitness, log enrichment relative to wild type (log ratio); higher = more active; in vitro selection for triplet polymerase activity. In short, it runs like this:
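Input and output libraries were sequenced on Illumina after a single in vitro selection round, run in triplicate on PCR-built, transcribed mutant libraries of each subunit of a heterodimeric triplet polymerase ribozyme. Selection annealed libraries to a biotinylated primer, the partner subunit and triplets, incubated them frozen at −7 °C, then gel-excised extended constructs for streptavidin-bead capture and RT-PCR. Genotypes with ≥10 input reads and ≥1 read per output were kept. Fitness is the logarithm, taken in base 2, of genotype enrichment divided by wild-type enrichment, using inverse-variance-weighted replicate averages.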
For the variant C11G G113U, the “polymerase ribozyme fitness (log ratio)” value is -2.12.

For the variant C8A C53A C82A A108U, the “polymerase ribozyme fitness (log ratio)” value was -5.69.

Take U7C U14G G48U: the “polymerase ribozyme fitness (log ratio)” value is -2.35.

Take C72A C79G: the “polymerase ribozyme fitness (log ratio)” value was -1.13.

On to C40U U55C C70U, for which the “polymerase ribozyme fitness (log ratio)” value was -1.45.

Consider A41U C88G, for which the “polymerase ribozyme fitness (log ratio)” value is -2.13.

As to G47A A111U, the “polymerase ribozyme fitness (log ratio)” value is -4.17.

Regarding A26U U38G A43U C73G C76U A111G, the “polymerase ribozyme fitness (log ratio)” value was -7.42.

As to C15U G52A, the “polymerase ribozyme fitness (log ratio)” value was -1.6.

As for C104A U133A, the “polymerase ribozyme fitness (log ratio)” value is -1.68.

For C11U C53A, the “polymerase ribozyme fitness (log ratio)” value was -0.286.

As for A5C A27U C73U C123U G128A, the “polymerase ribozyme fitness (log ratio)” value is -3.34.

Take G36A C53U U126A U129G U133G: the “polymerase ribozyme fitness (log ratio)” value was -4.06.

For C20U A46U, the “polymerase ribozyme fitness (log ratio)” value was -2.88.

As to C49A G61U A83C U129C, the “polymerase ribozyme fitness (log ratio)” value was -0.881.

As to C13G C62U G120U, the “polymerase ribozyme fitness (log ratio)” value was -0.935.

As to C11G G60A, the “polymerase ribozyme fitness (log ratio)” value is 0.811.

Regarding C53U C62U U106C G117U, the “polymerase ribozyme fitness (log ratio)” value is -4.61.

Consider G10U U30C C124G, for which the “polymerase ribozyme fitness (log ratio)” value is -2.38.

C13U G39A: the “polymerase ribozyme fitness (log ratio)” value is -0.593.

With U7C G17U G35C U96A C97U U112A, the “polymerase ribozyme fitness (log ratio)” value is -6.44.

As to A5U A46U U59C A90U C123A, the “polymerase ribozyme fitness (log ratio)” value is -2.16.

On to A37G U131G, for which the “polymerase ribozyme fitness (log ratio)” value is -1.11.

As for U7A C56A C94U, the “polymerase ribozyme fitness (log ratio)” value was -0.558.

As for G51C G69U, the “polymerase ribozyme fitness (log ratio)” value was -2.95.

For the variant C8U C53U U92G U131G, the “polymerase ribozyme fitness (log ratio)” value is -2.8.

With C73U G120U, the “polymerase ribozyme fitness (log ratio)” value was determined as 0.0471.

Regarding A16U G58A C62A, the “polymerase ribozyme fitness (log ratio)” value was -3.9.

On to C22A C72G, for which the “polymerase ribozyme fitness (log ratio)” value was -4.59.

Regarding U14C G57U C80A U133A, the “polymerase ribozyme fitness (log ratio)” value is -3.25.

Regarding C8U C20G A95G G113U G128A, the “polymerase ribozyme fitness (log ratio)” value was -2.96.

In the case of A29U G48U C72G G120A, the “polymerase ribozyme fitness (log ratio)” value is -3.12.

Regarding G44A A111U U132A, the “polymerase ribozyme fitness (log ratio)” value is -3.18.

As to C15U C20A C72U C86U, the “polymerase ribozyme fitness (log ratio)” value was -3.76.

Regarding C70A U106C, the “polymerase ribozyme fitness (log ratio)” value was -2.99.

Take A5U U14G A83C A111C: the “polymerase ribozyme fitness (log ratio)” value is -2.47.

On to G10A G58C, for which the “polymerase ribozyme fitness (log ratio)” value was determined as 0.631.

In the case of C11G G17A C72U C101U, the “polymerase ribozyme fitness (log ratio)” value is -2.99.

With G17A A84U, the “polymerase ribozyme fitness (log ratio)” value was -2.87.

For the variant U7C A18G G117C, the “polymerase ribozyme fitness (log ratio)” value was -4.72.

For A41G G71U, the “polymerase ribozyme fitness (log ratio)” value was -0.756.

Consider G17A G113A, for which the “polymerase ribozyme fitness (log ratio)” value was -3.43.

As for A16U C31U, the “polymerase ribozyme fitness (log ratio)” value is -4.77.

Take C13U A41G C49G U87A: the “polymerase ribozyme fitness (log ratio)” value was -0.587.

Regarding C56U A91C, the “polymerase ribozyme fitness (log ratio)” value was -1.17.

For the variant U106A G128C, the “polymerase ribozyme fitness (log ratio)” value is -2.95.

For G17C C49A, the “polymerase ribozyme fitness (log ratio)” value was -4.92.

Take C13G G63C U87C: the “polymerase ribozyme fitness (log ratio)” value was -3.11.

With C11G A41U G69C U81C, the “polymerase ribozyme fitness (log ratio)” value was -4.06.

G44A G51C C62G C85G G110C: the “polymerase ribozyme fitness (log ratio)” value was -7.25.

U9G G63U: the “polymerase ribozyme fitness (log ratio)” value was -0.815.

On to U14A A90G, for which the “polymerase ribozyme fitness (log ratio)” value is -2.78.

As for A46U C62A U133A, the “polymerase ribozyme fitness (log ratio)” value is -2.52.

Take C12A A41U A90C: the “polymerase ribozyme fitness (log ratio)” value is -1.95.

A5U U33G C76A C80A A83C G113U A119U: the “polymerase ribozyme fitness (log ratio)” value is -6.4.

Consider A66C G93A A121G, for which the “polymerase ribozyme fitness (log ratio)” value is -0.199.

Regarding C8U A105C, the “polymerase ribozyme fitness (log ratio)” value is -2.01.

In the case of G45A G48U C49A C53U C115G, the “polymerase ribozyme fitness (log ratio)” value is -3.77.

Turning to G10U G42U, the “polymerase ribozyme fitness (log ratio)” value was -2.78.

As for A18G G19U C49U C85U G110C U112G, the “polymerase ribozyme fitness (log ratio)” value is -5.77.

With G52A C56U G93A, the “polymerase ribozyme fitness (log ratio)” value was -0.382.

As for G51A A103G, the “polymerase ribozyme fitness (log ratio)” value is -6.42.

Consider G44A A66G, for which the “polymerase ribozyme fitness (log ratio)” value was -1.89.

In the case of C40U U112C, the “polymerase ribozyme fitness (log ratio)” value was determined as 1.25.

Take G47A C56U A105U: the “polymerase ribozyme fitness (log ratio)” value was -2.73.

On to C8U C72A A100C U132C, for which the “polymerase ribozyme fitness (log ratio)” value was -0.83.

Regarding G42U G60A C101U A121G, the “polymerase ribozyme fitness (log ratio)” value came out at 0.281.

Regarding G10U G69A A91C, the “polymerase ribozyme fitness (log ratio)” value is -7.2.

With C8U C13G C102A G122A C123G, the “polymerase ribozyme fitness (log ratio)” value is -0.13.

Regarding G63C C104A, the “polymerase ribozyme fitness (log ratio)” value is -1.86.

With U14G C72A U106G, the “polymerase ribozyme fitness (log ratio)” value is -3.74.

On to G71U A75G, for which the “polymerase ribozyme fitness (log ratio)” value was -0.135.

In the case of A27U U59A, the “polymerase ribozyme fitness (log ratio)” value was -3.1.

Take C56G G61A G77A: the “polymerase ribozyme fitness (log ratio)” value was 0.026.

For A46C G120C, the “polymerase ribozyme fitness (log ratio)” value was 1.36.

For the variant C20G A41U C73G U87C U92A C123G, the “polymerase ribozyme fitness (log ratio)” value is -4.71.

Consider C28A C64G A111U C115G, for which the “polymerase ribozyme fitness (log ratio)” value was -6.15.

On to C15U G36U C64A A121G, for which the “polymerase ribozyme fitness (log ratio)” value is -5.18.

For the variant C12U G63C, the “polymerase ribozyme fitness (log ratio)” value was -0.399.

On to G63U C70G C89A A90U A100U A121G, for which the “polymerase ribozyme fitness (log ratio)” value was -2.02.

For the variant C8G C49G C82G A118U, the “polymerase ribozyme fitness (log ratio)” value was 0.164.

As for A83G G120U G122U, the “polymerase ribozyme fitness (log ratio)” value was -0.467.

C15U G120C: the “polymerase ribozyme fitness (log ratio)” value was -0.175.
